Results from PMC12857291.

Legend:
MeCP2-MBD WT [1] = biological target: T1, MeCP2-MBD WT (UniProt P51608 80-164); experiment: EMSA; no peptide; EMSA: 0.5 uM DNA, 0-20 uM protein, 50 mM HEPES pH 7.5, 100 mM NaCl, 1 h at 4 C; 6% native PAGE, 1X TBE, 80 V, 4 C; SYBR Gold; n=3; details: protein: recombinant; tags: C-terminal 6xHis; label: none (SYBR Gold stain); blunt
MeCP2-MBD WT [2] = biological target: T1, MeCP2-MBD WT; experiment: EMSA; 20 uM histone H3(15-36)K27me3 peptide; EMSA: 0.5 uM DNA, 0-20 uM protein, 50 mM HEPES pH 7.5, 100 mM NaCl, 1 h at 4 C; 6% native PAGE, 1X TBE, 80 V, 4 C; SYBR Gold; n=3; details: protein: recombinant; tags: C-terminal 6xHis; label: none (SYBR Gold stain); blunt

T1 sequence (P51608 80-164): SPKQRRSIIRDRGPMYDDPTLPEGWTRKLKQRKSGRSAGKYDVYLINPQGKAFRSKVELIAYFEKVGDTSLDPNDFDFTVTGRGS

B1: BDNF promoter duplex mC/mC (dsDNA)
DNA 1: GCCCTGGAACGGAACTCTTCTGGCC
DNA 2: GGCCAGAAGAGTTCCGTTCCAGGGC
modifications: 5-methyl-dC at position 10 of the top strand and position 15 of the bottom strand (symmetric mCpG)
- Kd (MeCP2-MBD WT [1]): 1200 ± 100 nM
- Kd (MeCP2-MBD WT [2]): 1300 ± 100 nM
